Assay results reported in the DeepSol protein solubility set.

Test: soluble on expression in E. coli; label from the status in PepcDB or PDB records

Sequence | soluble on expression in E. coli
MGSDKIHHHHHHMTLLRGDDFFTSRAVTVAVEPRTPQTAFPEHYHDFWEIVLVEQGAGVHVFNDQPYALCSGSVFFVRDNDRHLFEDVEGLCLTNMLYRSPRGFRFLSDIAAFLPYGPNGEWQGQWQVNAAGMQQLKQSLNSLAGLAQSDAPEAIAASESLFLQILVQLRQHCFQTEGNGSERQGVQALLGWLQNNYSEEVNWGGLADQFSLPLRTLHRQLKQHTGMTPQRYLNRLRLLEARRRLQQSDDSITTIAHACGFSDSNHFSTQFRKAFSQAPKSLRHQAFSREE | not soluble
MGSDKIHHHHHHMTLMKPADVSQRQSTSVLHSSSHSPSQNHLLAALPQVELESFSDHLELVPMPLGEFLYEPGSGLEYVYFPTTCIVSLHYVLSSGATAETAGVGNEGVVGVSLFMGGNTTASSAVVQTAGYGYRLNKKILMREFDRSGLLQRVLLRYTQALMTQMSQTAVCNRHHSLEQQFCRWLLLTLDRMPTNELVMTHELVASMLGVYREGISLAAGKLQQAGVISYRRGHISVLDRAKLELKSCECYQVVKTELDRLLSDGLLADAKFIKTKTDTQTSKTQ | not soluble
MGSDKIHHHHHHMTNQNYLAKTTNKQYIVKFFGKGTEKLINRQDEKYNLELLKDLGLDVKNYLFDIEAGIKVNEYIESAITLDSTSIKTKFDKITPILQTIHTSAKELRGEFAPFEEIKKYESLIEEQIPYANYESVRNAVFSLEKRLADLGVDRKSCHIDLVPENFIESPQGRLYLIDWEYSSMNDPMWDLAALFLESEFTSQEEETFLSHYESDQTPVSHEKIAIYKILQDTIWSLWTVYKEEQGEDFGDYGVNRYQRAIKGLASYGGSDEK | not soluble
MGSDKIHHHHHHMTPPPDELLAVRQAVEWAITTRRSVRAFLPKPVTADTVEAILNTARFAATGVNIQPWKVHVLMGAAKDRVCAAIKQIDDDPAVAVMHADEWAYYPKEWTSPYVDRRRAVGWRLYSLLGIEKGDKARMQVQHGRNYQFFGAPVGLFFTVDRLMSEGSLLDYGMFLQNIMVVARTYGLSTCPQAAFMKYHRIIEQELGLGAHEKFVVGMSLGYADEERIENTLASEREPAASFTTFHEK | not soluble
MGSDKIHHHHHHMTPSIPPEVAQHLGYYVYLYVDPRTEQVFYVGKGQGQRVLSHLSAEGESRKAQILAELRQAQLSPRLDILAHGLPDEATAYRIEAAAIDLLGLDSLSNLVRGWQSVRSGRRSLEELVTYYAAPPAVITDPVMLIRSNRLYWHGMPAQELYEATRGVWKVAKWRQQEVKYALAVFEGVVREVYTIESWHPAGQTPYQTRLAEAVNDPQRWEFVGHVAPEEVRNRYLYHSVTASFARNAQNPIAYPPVT | not soluble
MGSDKIHHHHHHMTPTVLLANPRGFCAGVDRAIAIVERALEKFGAPIYVRHEVVHNTFVVDDLKRKGAVFVEELSEVPAGATVIFSAHGVSQAVRTEAAARGLTVFDATCPLVTKVHVEVSKMRDKGYEIVMIGHKGHPEVEGTLGQSAGGMYLVETPGDVATLEVTNPDCLAYVTQTTLSVDDAARVVDALRARFPTITGPKKDDICYATQNRQDAVKHLASQCDVVIVVGSPTSSNSNRLREVAENLGIAAYMVDNADEIDPRWVSGNQRVGVTAGASAPDVLVRAVIDRLERLGICSVSELDGVQEKVGFPLPRELA | not soluble
MGSDKIHHHHHHMTQHPFISRVAVRNYKSIGYCDVNLRPLTYLVGHNGAGKSNFMDALHFVCDALSYSLDSALNERGGINEVRRRSGGHPTHFALRVEFVMQSGQAGRYGFVIGALKNGGYEVQREECVVAGIGKGPFFRIEKGKLRDSSETTFPSVTADRLALVAASGLTAFRPVFDALTAMGFYNLNPKLMRELQKPQDGRLLRPAGENIASVIGHLEKVAPAQMALIQEYLHSVAPMVHGVERKPIGPMETLEFRQDMAGSKHPWRFLAQNMSDGTLRALGVLSALLQGNVDYSPTLIGIEEPETALHPAASAALREALVRASETTQVLVTSHSPDLLDDHSIDADAVLAVVSEAGETKVAPLDEGSRQVMRDHLFSAGELLRMNQLAPDRASLEQQDKAASGDLFGETESV | not soluble
MGSDKIHHHHHHMTQITPQPGIMDIALYQGGAAHVDGVSNVTKLSSNENPLGPSPAAVEAMAEAAATMHRYPSSDHATLRAAIAETHGLDAERIICGAGSDEIIAFLCQCYAGPGDEVLYTEHGFAMYRISALAAGATPVEVKERERVTDVDALLAGCTAQTKLVFIANPNNPTGTMISEAEVARLADGIPEDAILVLDGAYAEYVEGFDAGAQLIAARHNVVMTRTFSKIYGLGGARVGWAYGPQEIIDVLNRVRGPFNVSTTALAGAEAAVRDTDYVQRCRLENAKWRGWLADQLAELGVPSDTSCTNFILARFASQSEAESCDDFLKQRGLIVRRVAGYNLPTALRITIGDETACRAVAAAVKDFKAGAAE | not soluble
MGSDKIHHHHHHMTQLIMRPRPGKIKLGLKASQAPAQLMDRLQYRPEVFEFFTSATDFEPEAFQTLKTAVQFVKTTVTEQIVIHHPMSYQGVHLDQLLDPHREAAAYQFLQTSTAQLLALATELDVKVLVHGGYGSDSGRLIDEYESLQVARDVVFERLDNLVRQASGHVVIENGVTASFMYGDPQLDERIIQHHYPLVCDLSHVFIALHGDMELTMLALKRLAPLIQHYHLVDSMGTRHDSLPLGQGLIDWQRVLPVLNPHATMIYEVPDETDATCANMLSSYHYLRALELRSIEGGQAND | not soluble
MGSDKIHHHHHHMTQPELTPAQRTEVELLARGRADKSRVLRDLKLPETPEAAHALLLRLGVWDEARTPYADRLRAALNAVELPVPDFDPAEERLDLTHLPTFAIDDEGNQDPDDAVGVEDLGGGLTRLWVHVADVAALVAPDSPLDLEARARGATLYLPDRTIGMLPDELVAKAGLGLHEVSPALSICLDLDPDGNAEAVDVLLTRVKVQRLAYQEAQARLEAGEEPFVTLARLARASRRLREGEGALSIDLPEVRVKADETGASVFPLPKPEMRTVVQECMTLAGWGTAIFADDNEIPLPFATQDYPTREVAGDTLPAMWARRKTLARTRFQPSPGPHHGMGLDLYAQATSPMRRYLDLVVHQQLRAFLAGRDPLSSKVMAAHIAESQMNADATRQAERLSRRHHTLRFIAAQPERVWDAVVVDRRGAQATLLIPDLAFDVQVNTPAAPGTALQVQFADIDLPQMRVRARSV | not soluble
MGSDKIHHHHHHMTRIALTHVTTYRYGAPVTLGEHKMMFRPRDSHDLHIVEATLVLSPVAEVRWMHDVFGNSITIADFQGASTDFLRFESKILLDHFGLSEPTYPIAAYAETFPFTYDADLVADLGRTNERHYPDPDHRLDAWARRFLDEPGETATLEMLSAMNRAISAEFSYAARDTEGTQTPLETLERGSGSCRDFALLMMEAVRSLGLAARFVSGYLYDPALDGRNASGTVGAGATHAWLQVYLPGAGWVEFDPTNALVGGENLIRVAVTRDPSQAVPITGSFAGPGNAFLSMEVEVTLHRQDQNIQVA | not soluble
MGSDKIHHHHHHMTRIASHRGGTLEFGDSTPHGFTATAAMALEEVEFDLHPTADGAIVVHHDPTLDATTDMTGAIVDMTLAKVKTATIRYGAGSHPMTLEELCALYVDSHVNFRCEIKPGVDGLPYEGFVALVIAGLERHSMLERTTFSSFLLASMDELWKATTRPRLWLVSPSVLQQLGPGAVIETAIAHSIHEIGVHIDTADAGLMAQVQAAGLDFGCWAAHTPSQITKALDLGVKVFTTDRPTLAIALRTEHRMEASV | not soluble
MGSDKIHHHHHHMTRIVESLAEISDLYDAVFCDLWGCVHDGITAFDEAIEALRAFKAKGGTVLLLTNAPRPRASVATQLDDFGIPRDCWDVIATSGDSARAAMLSGAVGTKVWHIGEPEHAPFFAPMDLVADAVDVTRVPLDEAEGIVCTGPFDPKADPSELRPQFLLAKTRRLKLLCANPDIVVDRGESREWCAGALAKLYTEMGGESLYFGKPHPPIYDLARRRLVQMGKPTPDDRILAIGDGIVTDVPGGIGENIDTLFITGGLARDETGTDHQPDPAKLARFLTDAQLEPTYSVGMLR | not soluble
MGSDKIHHHHHHMTRNANKNNKECEKCWIFDLNQFKMITNSILEENTLVLEINQNYEVSVLMDYDVFLENGILTFKDFVNDNSKSAQVLTGSLKTGILNKMSQSISEGLLNKTTNRRTYYITEPTPLIGHTAFGLIDRGTNVIQVRGLSGCNINCPFCSVDEGIHSKSRKNDYYVDKDYLVSEYEKIADFKGYKKLEAHLDGQGEPSLYYPLPDLVQNLNEINSKNNGIVSIQTNGVHLTEKLIDDLEVAGLHRINLSINAMDEKFSKGLSGSKNYDIEKIMKIAEYIKNSKIHLLIAPLLLPNYNDEEFKKVLDFAVELEQKNPQNTINPITNKKNPIVGPQLCLTYQFGRKIPKMRVWDFPKFYNLLDVYHKEYLKDGINVDLEVPLHGFFGSHGRKRLPCPFKLNETISVTVLMDGRVNGEVIGASKNRVIQIIDCKTDINKLIGKRVKVKVLRVKDNVIVGSMVK | not soluble
MGSDKIHHHHHHMTRSVLVDLDAVLSIARLGSFRAAALDLGMSTTALSNAIAKLEQRLGVRLFNRTTRSVSLTDAGKTFAERVGPAMMDIHDAMLSVQSLQETPAGTLRINAFATAAREVMEPLILSFMQRYPQVHIDLVTEGRIVDIVAAGFDLGLRPADLVPADMIAVSLGLKRSNAVVASPDFLRIHGIPTVPADLYRFRCIRARLPNNALFRWKFEKDGDAMQIDVQGSITLDESSLVRIAAQNGVGLGYVMEADVREDIAAGRLVRVLEDWTPALAPLALYYPGRKNPPAAFSAFIQAARNFANGG | not soluble
MGSDKIHHHHHHMTSKLAAVSHIEKIALGLRDQAHAVIKNILMMSDIPTQELQHAMKQLSHQGRVALHFHPDRIDNRGLTVVQGLLRDGIYKSQFETHISNGQLSPELGGPRDHWENQLFGNSYSGIKSRPKYGALDLGLCPLGPAPRFGSCYFLTHSQVLSRCTFSYMDSYRLPKEKGTLSCFDAILAALLSESFERCYALGRQPFKPRDIMAHMACEAKSSVAARFELPGLGNLDHYIEAQIHGDVSLADDIGYLVADPSFKGTETEEYFNQLCSDYQINLHWHNGLTLACDKVPTDFRGAAMPVLAKQIAIDEVIDAKTVGAEAARLQKQPSSWSERGSQAKKTQELKLLWHVLVRFGKPREDNFDNH | not soluble
MGSDKIHHHHHHMTSSLQKLFTFDEFLDFLVTQPENIRYELHDGNIIQMPPPLGQHEQIVAFLTMILGYECLRLKLNYGIPKNATVKPENRTSGYYPDVLLINFSNLINEALWEKQSILSHPDSIPLVIEVVSTNWRDDYHKKLADYEEMGIQEYWIVDYAALGSKELIGDPKQPTITIYSLSDEGEYRGKQFRGDDRIESPTFSNLNLKVEQIFHCVIE | not soluble
MGSDKIHHHHHHMTSTPGISDSLLSSMNGSGANNNTSAISETQDRFMKLLIAQMKNQDPLNPMDNAEVTSQMAQLSTVTGIEKMNASLSTFISSMQATQALQASSLIGNTVLVEGNSTYLAPAETEGESAAYLGVELPIGADKLTVNIKNGAGNVVKTITVTNQPAGISSLGWNGYGDDGTKLPDGRYTIEATATTGNSSVASTPLSYEQVMSVSTGSDGVKLNLSNLAAITTDQIKQIF | not soluble
MGSDKIHHHHHHMTVEFDAARLGPILYYRGLEGDALQLAAMVMLPIGERPETLRTDAGDHAPTLLREIGRSAVWRYDFGLTPSCGSYRLGDQSYDVQTDLHGDMRIAFASCNGEEKGDLDRDQEERNRMWAHMCAEHRRAPFALLLQGGDQIYADEATEGHPLSEDWPDKAGRPRNAEELKDLADHLRLRFAERYVQALFGEAPSWIMARVPTLAIWDDHDICDGWGSLYRSKTHSEVGQCLYAVAREMYLLFQHAAVEGDIPDLFMDETGTSLSWQRALPGVKLLAPDLRAERGRRQVLGAYGWSAVEAMKPGSEHTFVISSVPLLGPRLSLVEGLMLMIPTMQKYEDDLRDQWQSRAHRKEWIRMLKQVIAWREEAPVTILSGEIHLATRAEMGPDETRVHQLVASGIAHRAPPQSYARSLGTLAGLGDAPVSGHPIRIHPLPGQSQRYTAERNYLELRRTHGKWHAVWHLEESGDTVPMVLE | not soluble
